Data from patent US20240392003A1 (NUMAB THERAPEUTICS, published 2024).
Read-outs that look alike come from different tables or passages of the source. One block for each binder: values may come before it.

Assays:
[1] = target: T1, human ROR1 expressed on cells (human, UniProt Q01973 30-937); assay: flow cytometry, MDA-MB-231 cells
T1 construct: whole, on cells; One molecule for cell-surface ROR1 on all cell lines; the cell line is named under assay; also called hROR1; plasma membrane human ROR1
Experimental: After three washing steps with PBS-EB, cells were centrifuged and washing buffer was aspirated. […] After incubation at 4° C. for 1 h, plates were washed three times using 100 μl of PBS-EB. Cells incubated with scFvs were re-suspended with 100 μl of Numab's framework specific detection antibody (PRO2268, rabbit 1 gG) and incubated at 4° C. for 30 min. Following a washing step, PRO2268 was subsequentially detected by the addition of anti-rabbit IgG antibody labeled with APC at a concentration of 2 μg/ml and incubated for 1 h at 4° C. […] Next, cells were washed again three times using 100 μl of PBS-EB per well. […] The fluorescence intensity of the APC channel was recorded for each sample and the geometric mean of the fluorescence intensity (MFI) was calculated. The data were single-referenced (subtracted for fluorescence intensity found on cells incubated with detection reagents only), and subsequent concentration-response curves were fitted using a 4-PL fit (GraphPad Prism software).
Plasma membrane binding of optimized scFvs to human ROR1-expressing MDA-MB-231 cells by flow cytometry was performed as described above. […] After incubation at 4° C. for 1 h, plates were washed and incubated with specific detection antibodies.

[2] = target: T1, human ROR1 expressed on cells; assay: flow cytometry, MDA-MB-231 cells; remark: listed apart in the source
Experimental: Cell suspensions were centrifuged for 5 min at 400×g and 100 μl of cell suspensions (50,000 cells) diluted in PBS-EB (1×DPBS, 2% FCS H.I., 2 mM EDTA) were added to designated wells in a non-binding 96-wel plate. After three washing steps with PBS-EB, cells were centrifuged and washing buffer was aspirated. […] After incubation at 4° C. for 1 h, plates were washed three times using 100 μl of PBS-EB. Cells incubated with scFvs were re-suspended with 100 μl of Numab's framework specific detection antibody (PRO2268, rabbit 1 gG) and incubated at 4° C. for 30 min. Following a washing step, PRO2268 was subsequentially detected by the addition of anti-rabbit IgG antibody labeled with APC at a concentration of 2 μg/ml and incubated for 1 h at 4° C. […] Next, cells were washed again three times using 100 μl of PBS-EB per well. […] The fluorescence intensity of the APC channel was recorded for each sample and the geometric mean of the fluorescence intensity (MFI) was calculated. The data were single-referenced (subtracted for fluorescence intensity found on cells incubated with detection reagents only), and subsequent concentration-response curves were fitted using a 4-PL fit (GraphPad Prism software).
Plasma membrane binding of optimized scFvs to human ROR1-expressing MDA-MB-231 cells by flow cytometry was performed as described above.

[3] = target: T2, recombinant human ROR1 protein (Fc-Tag, Acro Biosystems RO1-H5250) (human, UniProt Q01973 30-406); assay: SPR; hROR1-Fc immobilized
T2 construct: Bought; also called hROR1; recombinant human ROR1 ECD; not shown: Fc tag

[4] = target: T1, human ROR1 expressed on cells; assay: flow cytometry, gated on CLL patient tumor cells (ROR1 about 8k/cell), titration in the presence of human serum albumin, labelled framework-specific secondary reagent
[5] = target: T2, recombinant human ROR1 protein (Fc-Tag, …); assay: SPR; hROR1-Fc immobilized; remark: listed apart in the source
Experimental: Binding kinetics (including affinity) of the nine scMATCH3 molecules to recombinant human ROR1 protein (Fc-Tag, Acro Biosystems) were determined by SPR analysis on a T200 device (Biacore, Cytiva), as described in section 1.6. Recombinant human ROR1 molecules were covalently immobilized to a carboxymethylated dextran surface (CM5 sensorchip; Biacore, Cytiva) and a titration series of each MATCH3 molecule was injected as analyte. After each analyte injection-cycle, every flow channel on the sensor chip was regenerated (Glycine, pH 2.0 and 3 M MgC₂), and a new concentration of MATCH3 molecule was injected. […] The apparent dissociation (kd) and association (kₐ) rate constants and the apparent dissociation equilibrium constant (KD) were calculated with the Biacore analysis software (Biacore Evaluation software Version 3.2, Cytiva) using a one-to-one Langmuir binding model, and quality of the fits was monitored based on Chi2 and U-value, which are measures for the quality of the curve fitting. The binding level was calculated as the maximum stability binding achieved normalized to the theoretical Rmax.

[6] = target: T3, recombinant human CD3 epsilon extra-cellular domain protein (His-Tag, SinoBiological) (human, UniProt P07766 23-126); assay: SPR; hCD3ε immobilized, two-state fit (kd1)
T3 construct: extracellular domain; Bought; also called hCD3ε; human CD3ε; not shown: His tag

[7] = target: T3, recombinant human CD3 epsilon …; assay: SPR; hCD3ε immobilized, two-state fit (ka1)
Experimental: Binding kinetics (including affinity) of the nine selected scMATCH3 molecules to recombinant human CD3 epsilon extra-cellular domain protein (hCD3ε; His-Tag, SinoBiological) were determined by SPR analysis on a T200 device (Biacore, Cytiva). Recombinant hCD3ε molecules were covalently immobilized to a carboxymethylated dextran surface (CM5 sensorchip; Biacore, Cytiva) and a titration series of each MATCH3 molecule was injected as analyte. After each analyte injection-cycle, every flow channel on the sensor chip was regenerated (Glycine, pH 2.0 and 3 M MgCl₂), and a new concentration of MATCH3 molecule was injected. […] The apparent dissociation (kₐ₁) and association (kₐ₁) rate constants, the second reaction constants (kₐ₂ and kd) and the apparent dissociation equilibrium constant (KD) were calculated with the Biacore analysis software (Biacore Evaluation software Version 3.2, Cytiva) using a two-state binding model, and quality of the fits was monitored based on relative Chi2. The binding level was calculated as the maximum stability binding achieved normalized to the theoretical Rmax.

[8] = target: T1, human ROR1 expressed on cells; assay: flow cytometry, MDA-MB-231 cells, 1 mg/ml hSA
Experimental: After incubation at 4° C. for 1 h in presence of 1 mg/mi of human serum albumin (hSA), plates were washed and incubated with specific detection antibodies.
The binding of anti-ROR1xhSAxCD3 scMATCH3 molecules to plasma membrane human ROR1 was assessed by flow cytometry.

[9] = target: T3, recombinant human CD3 epsilon …; assay: SPR; hCD3ε immobilized, two-state fit
[10] = target: T2, recombinant human ROR1 protein (Fc-Tag, …); assay: SPR; hROR1-Fc immobilized (Avidity)
Experimental: Recombinant human ROR1 molecules (Fc-Tag, Acro Biosystems RO1-H5250) were covalently immobilized to a carboxymethylated dextran surface (CM5 sensorchip; Biacore, Cytiva) and a titration series of each MATCH4 molecule was injected as analyte. After each analyte injection-cycle, every flow channel on the sensor chip was regenerated (Glycine, pH 2.0 and 3 M MgCl₂), and a new concentration of MATCH4 molecule was injected.
(§1) For both assays, the apparent dissociation (kd) and association (kₐ) rate constants and the apparent dissociation equilibrium constant (KD) were calculated with the Biacore analysis software (Biacore Evaluation software Version 3.2, Cytiva) using a one-to-one Langmuir binding model and quality of the fits was monitored based on Chi2 and U-value, which are measures for the quality of the curve fitting. The binding level was calculated as the maximum stability binding achieved normalized to the theoretical Rmax.

[11] = target: T4, human ROR1 (Peprotech 160-054) (human, UniProt Q01973 30-406); assay: SPR; MATCH4 captured, hROR1 analyte (Affinity)
T4 construct: Bought, used as analyte; also called hROR1; recombinant human ROR1 protein
Experimental: Binding affinity without avidity was determined by using a proprietary anti-framework rabbit IgG (rlgG21-57-20-B11) immobilized to a carboxymethylated dextran surface (CM5 sensorchip; Biacore, Cytiva) to capture the MATCH4 molecules on the surface. A titration series of human ROR1 (Peprotech 160-054) molecule was injected as analyte. After each capture-analyte injection cycle, every flow channel on the sensor chip was regenerated (3 M MgCl₂), and a MATCH4 molecule was captured again followed by a different concentration of human ROR1. The binding kinetics to human ROR1 were measured using a multi-cycle kinetic assay, with ten analyte concentrations ranging from 0.088 to 90 nM, 1:2 diluted in running buffer (HEPES buffered saline, 0.05% Tween-20, pH 7.5; Bioconcept).
as §1

[12] = target: T3, recombinant human CD3 epsilon …; assay: SPR; hCD3ε immobilized, two-state fit (kd1); remark: listed apart in the source
Experimental: (§2) Binding kinetics (including affinity) of the four MATCH4 molecules to recombinant human CD3 epsilon extra-cellular domain protein (hCD3ε; His-Tag, SinoBiological) were determined by SPR analysis on a T200 device (Biacore, Cytiva). Recombinant hCD3ε molecules were covalently immobilized to a carboxymethylated dextran surface (CM5 sensorchip; Biacore, Cytiva) and a titration series of each MATCH4 molecule was injected as analyte. After each analyte injection-cycle, every flow channel on the sensor chip was regenerated (Glycine, pH 2.0 and 3 M MgCl₂), and a new concentration of MATCH4 molecule was injected. […] The apparent dissociation (kd1) and association (kₐ₁) rate constants, the second reaction constants (kₐ₂ and kd2) and the apparent dissociation equilibrium constant (KD) were calculated with the Biacore analysis software (Biacore Evaluation software Version 3.2, Cytiva) using a two-state binding model, and the quality of the fits was monitored based on relative Chi2. The binding level was calculated as the maximum stability binding achieved normalized to the theoretical Rmax.

[13] = target: T1, human ROR1 expressed on cells; assay: cell-based or functional assay
[14] = target: T1, human ROR1 expressed on cells; assay: cell-based or functional assay; remark: listed apart in the source
[15] = target: T1, human ROR1 expressed on cells; assay: flow cytometry, MDA-MB-231 cells, 1 mg/ml hSA; remark: listed apart in the source
Experimental: After incubation at 4° C. for 1 h in presence of 1 mg/ml of human serum albumin (hSA), plates were washed and incubated with specific detection antibodies.
The binding of MATCH4 molecules to plasma membrane-based human ROR1 was assessed by flow cytometry. The calculated EC₅₀, rel.

[16] = target: T3, recombinant human CD3 epsilon …; assay: SPR; hCD3ε immobilized, two-state fit (Ka1)
Experimental: as §2

[17] = target: T1, human ROR1 expressed on cells; assay: cell-based or functional assay; remark: listed apart in the source
[18] = target: T3, recombinant human CD3 epsilon …; assay: SPR; hCD3ε immobilized, two-state fit; remark: listed apart in the source
[19] = target: T1, human ROR1 expressed on cells; assay: flow cytometry, JIMT-1 cells (ROR1-positive)
[20] = target: T5, recombinant Cynomolgus monkey CD3ε (His-Tag; SinoBiological) (Cynomolgus monkey, UniProt Q95LI5 22-117); assay: SPR; cCD3ε immobilized, two-state fit
T5 construct: Bought; also called cCD3ε; not shown: His tag
T5 sequence (looked up): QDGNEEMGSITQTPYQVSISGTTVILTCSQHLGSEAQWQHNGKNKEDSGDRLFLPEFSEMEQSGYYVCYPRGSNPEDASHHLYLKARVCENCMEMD

[21] = target: T3, recombinant human CD3 epsilon …; assay: SPR; hCD3ε immobilized, two-state fit (Kd1)
Experimental: (§3) The apparent dissociation (kd1) and association (kₐ₁) rate constants, the second reaction constants (kₐ₂ and kd2) and the apparent dissociation equilibrium constant (KD) were calculated with the Biacore analysis software (Biacore Evaluation software Version 3.2, Cytiva) using a two-state binding model and quality of the fits was monitored based on relative Chi2. The binding level was calculated as the maximum stability binding achieved normalized to the theoretical Rmax.

[22] = target: T5, recombinant Cynomolgus monkey CD3ε …; assay: SPR; cCD3ε immobilized, two-state fit (Ka1)
Experimental: (§4) Recombinant hCD3ε molecules were covalently immobilized to a carboxymethylated dextran surface (CM5 sensorchip; Biacore, Cytiva) and a titration series of PR0726 was injected as analyte. After each analyte injection-cycle, every flow channel on the sensor chip was regenerated (Glycine, pH 2.0), and a new concentration of PR0726 was injected.
(§5) The binding kinetics to hCD3ε was measured using a multi-cycle kinetic assay, with eight analyte concentrations ranging from 0.7 to 90 nM, 1:2 diluted in running buffer (HEPES buffered saline, 0.05% Tween-20, pH 7.5; Bioconcept). The apparent dissociation (kd1) and association (kₐ₁) rate constants, the second reaction constants (kₐ₂ and kd2) and the apparent dissociation equilibrium constant (KD) were calculated with the Biacore analysis software (Biacore Evaluation software Version 3.2, Cytiva) using a two-state binding model and quality of the fits was monitored based on relative Chi2. The binding level was calculated as the maximum stability binding achieved normalized to the theoretical Rmax.
(§6) Binding kinetics to recombinant Cynomolgus monkey CD3ε (cCD3ε; His-Tag; SinoBiological) were measured as mentioned above for hCD3ε, with the exception that cCD3εwas used instead of hCD3ε.

[23] = target: T5, recombinant Cynomolgus monkey CD3ε …; assay: SPR; cCD3ε immobilized, two-state fit (Kd1)
Experimental: as §4, §5, §6

[24] = target: T3, recombinant human CD3 epsilon …; assay: SPR; hCD3ε immobilized, two-state fit (Ka1); remark: listed apart in the source
Experimental: as §3

[25] = target: T3, recombinant human CD3 epsilon …; assay: SPR; hCD3ε immobilized, two-state fit; remark: listed apart in the source
Experimental: as §3

fold lower apparent binding affinity than PRO2062 [1]: ~2 fold
EC50 [2]: 0.63 nM
Rel. maximum binding (MFIscFv/MFIPRO2213) [2]: 0.87
Kd [3]: 0.364 nM
koff [3]: 0.000578 s⁻¹
kon [3]: 1.59e+06 M⁻¹ s⁻¹
B1: PRO2271 (scFv, V domains shown)
VH: QSQLVESGGGLVQPGGSLRLSCAVSGIDLSRNAMSWVRQAPGKGLEWIGIILTSGSTYYASWAKGRFTISKTSTTLDLQMNSLRAEDTAVYFCVRGIASSSLKSFWGQGTLVTVSS
VL: AQQLTQSPSSLSASVGDRVTITCQASQNVWNNNYLSWFQQKPGKPPKLLIVTASTLASGVSSRFSGSGSGTDFTLTISSLQPEDFATYYCAGGFSGEIRAFGTGTKVTVLG
notes: scFv, T cell score optimized variant of PRO2062; also called 55-39-G02-sc03

EC50 (read off the curve) [4]: ~1 nM
Kd [5]: 0.28 nM
koff [5]: 0.00056 s⁻¹
kon [5]: 2e+06 M⁻¹ s⁻¹
koff [6]: 0.0047 s⁻¹
kon [7]: 2.5e+06 M⁻¹ s⁻¹
EC50 [8]: 0.74 nM
Rel. maximum binding (MFIscMATCH3/MFIPRO2213) [8]: 2.89
Kd [9]: 1.8 nM
ka2 [9]: 0.0049 s⁻¹
kd2 [9]: 0.0023 s⁻¹
B2: PRO2668 (bispecific antibody)
chain: AFELTQSPSSLSASVGDRVTITCQASESINSRLAWYQQKPGQPPKLLIYDASDLTSGVPSRFSGSGSGTDFTLTISSLQPEDFATYYCQGYGGSSTTTFGCGTKLTVLGGGGGSEVQLVESGGGRVQPGGSLRLSCAASGFSLSSYDMSWVRQAPGKGLAWIGASYASGPTYYASWAKGRFTISRDNSKNTVYLQMNSLRAEDTATYFCARGGWTGTSHSNIWGQGTQVTVSSGGGGSGGGGSGGGGSGGGGSDIQMTQSPSSLSASVGDRVTITCQSSQSVFSNNYLAWFQQKPGQSPKRLIYSASTLASGVPSRFSGSGSGTDFTLTISSLQPEDFATYYCLGSYACSSADCYVFGTGTKVTVLGGGGGSEVQLVESGGGRVQPGGSLRLSCAASGFSLSSYAMNWVRQAPGKCLEWIGHINAGDIAYYATWAKGRFTISRDNSKNTVYLQMNSLRAEDTATYFCARGAGGFSTGPFKLWGQGTQVTVSSGGGGSGGGGSAQQLTQSPSSLSASVGDRVTITCQASQNVWNNNYLSWFQQKPGKPPKLLIVTASTLASGVSSRFSGSGSGTDFTLTISSLQPEDFATYYCAGGFSGEIRAFGCGTKVTVLGGGGGSGGGGSGGGGSGGGGSQSQLVESGGGRVQPGGSLRLSCAVSGLSLSRNAMSWVRQAPGKCLEWIGIILTSGSTYYASWAKGRFTISKDNSKNTVYLQMNSLRAEDTATYFCVRGIASSSLKSFWGQGTQVTVSS
notes: trispecific anti-ROR1 x hSA x CD3 scMATCH3, single chain, optimized variant of PRO2510; also called 19-04-A10-sc06(RTQ) scDb-o/28-21-D09-sc04 (RTQ) scDb-i/55-39-G02-sc05(RTQ)-scFv; RPO2668

Kd [10]: 0.0287 nM
koff [10]: 5.69e-05 s⁻¹
kon [10]: 1.98e+06 M⁻¹ s⁻¹
Kd [11]: 5 nM
koff [11]: 0.00049 s⁻¹
kon [11]: 98000 M⁻¹ s⁻¹
koff [12]: 0.0055 s⁻¹
Avg. % max. lysis (JIMT-1) [13]: 24.9%
Avg. % max. lysis (MDA-MB-231) [13]: 47.1%
Avg. % max. lysis (SKOV3) [13]: 44.7%
Avg. EC50 (nM) CD8 T cell act. (MDA-MB-231) [13]: 0.011 nM
Avg. EC50 (nM) CD8 T cell act. (SKOV3) [13]: 1.6 nM
Avg. % max. CD4 T cell act. (JIMT-1) [14]: 23%
Avg. % max. CD4 T cell act. (MDA-MB-231) [14]: 79%
Avg. % max. CD4 T cell act. (SKOV3) [14]: 75%
Avg. EC50 (nM) CD4 T cell act. (JIMT-1) [14]: 9.1 nM
Avg. EC50 (nM) CD4 T cell act. (MDA-MB-231) [14]: 0.005 nM
Avg. EC50 (nM) CD4 T cell act. (SKOV3) [14]: 0.76 nM
EC50 [15]: 0.72 nM
Rel. maximum binding (MFIMATCH4/MFIPRO2213) [15]: 2.41
rel. EC50 (EC50, PRO2213/EC50, MATCH4) [15]: 0.94
kon [16]: 430000 M⁻¹ s⁻¹
Avg. % max. CD8 T cell act. (JIMT-1) [17]: 15.5%
Avg. % max. CD8 T cell act. (MDA-MB-231) [17]: 67%
Avg. % max. CD8 T cell act. (SKOV3) [17]: 54.7%
Avg. EC50 (nM) CD8 T cell act. (JIMT-1) [17]: 9.8 nM
Avg. EC50 (nM) CD8 T cell act. (MDA-MB-231) [17]: 0.011 nM
Avg. EC50 (nM) CD8 T cell act. (SKOV3) [17]: 1.6 nM
Ka2 [18]: 0.0036 s⁻¹
Kd [18]: 6.3 nM
Kd2 [18]: 0.0036 s⁻¹
EC50 (read off the curve) [19]: ~0.5 nM
B3: PRO2592 (bispecific antibody)
chain 1: AQQLTQSPSSLSASVGDRVTITCQASQNVWNNNYLSWFQQKPGKPPKLLIVTASTLASGVSSRFSGSGSGTDFTLTISSLQPEDFATYYCAGGFSGEIRAFGCGTKVTVLGGGGGSGGGGSGGGGSGGGGSQSQLVESGGGLVQPGGSLRLSCAVSGIDLSRNAMSWVRQAPGKCLEWIGIILTSGSTYYASWAKGRFTISKTSTTLDLQMNSLRAEDTAVYFCVRGIASSSLKSFWGQGTLVTVSSGGGGSGGGGSAFELTQSPSSLSASVGDRVTITCQASESINSRLAWYQQKPGQPPKLLIYDASDLTSGVPSRFSGSGSGTDFTLTISSLQPEDFATYYCQGYGGSSTTTFGCGTKLTVLGGGSGGSDIQMTQSPSSLSASVGDRVTITCQSSQSVFSNNYLAWFQQKPGQSPKRLIYSASTLASGVPSRFSGSGSGTDFTLTISSLQPEDFATYYCLGSYACSSADCYVFGTGTKVTVLG
chain 2: AQQLTQSPSSLSASVGDRVTITCQASQNVWNNNYLSWFQQKPGKPPKLLIVTASTLASGVSSRFSGSGSGTDFTLTISSLQPEDFATYYCAGGFSGEIRAFGCGTKVTVLGGGGGSGGGGSGGGGSGGGGSQSQLVESGGGLVQPGGSLRLSCAVSGIDLSRNAMSWVRQAPGKCLEWIGIILTSGSTYYASWAKGRFTISKTSTTLDLQMNSLRAEDTAVYFCVRGIASSSLKSFWGQGTLVTVSSGGGGSGGGGSEVQLVESGGGLVQPGGSLRLSCAASGFSLSSYDMSWVRQAPGKGLAWIGASYASGPTYYASWAKGRFTISRDNSKNTVYLQMNSLRAEDTATYFCARGGWTGTSHSNIWGQGTLVTVSSGGGSGGGSGGGSGEVQLVESGGGLVQPGGSLRLSCAASGFSLSSYAMNWVRQAPGKCLEWIGHINAGDIAYYATWAKGRFTISRDNSKNTVYLQMNSLRAEDTAVYFCARGAGGFSTGPFKLWGQGTLVTVSS
notes: heterodimeric MATCH4, bivalent for ROR1, monovalent for CD3 and hSA; also called MATCH4 with 55-39-G02-sc06 / 19-04-A10-sc06 / 28-21-D09-sc04 / 55-39-G02-sc06
Avg. EC50 (nM) Cytotoxicity (JIMT-1) [13]: 3.3 nM
Avg. EC50 (nM) Cytotoxicity (MDA-MB-231) [13]: 0.008 nM
Avg. EC50 (nM) Cytotoxicity (SKOV3) [13]: 5.37 nM

Kd [20]: 4.8 nM
koff [21]: 0.0055 s⁻¹
kon [22]: 820000 M⁻¹ s⁻¹
koff [23]: 0.0062 s⁻¹
kon [24]: 650000 M⁻¹ s⁻¹
Kd [25]: 5.3 nM
B4: PRO726 (scFv, V domains shown)
VH: EVQLVESGGGLVQPGGSLRLSCAASGFSLSSYDMSWVRQAPGKGLAWIGASYASGPTYYASWAKGRFTISRDNSKNTVYLQMNSLRAEDTATYFCARGGWTGTSHSNIWGQGTLVTVSS
VL: DIQMTQSPSSLSASVGDRVTITCQSSQSVFSNNYLAWFQQKPGQSPKRLIYSASTLASGVPSRFSGSGSGTDFTLTISSLQPEDFATYYCLGSYACSSADCYVFGTGTKVTVLG
notes: scFv; also called 28-21-D09-sc04; anti-CD3 scFv
